The target of this test is Komagataella phaffii Ero1 (Komagataella phaffii) (UniProt F2QNN1).
UniProt F2QNN1, sequence (F2QNN1 entry or part of it): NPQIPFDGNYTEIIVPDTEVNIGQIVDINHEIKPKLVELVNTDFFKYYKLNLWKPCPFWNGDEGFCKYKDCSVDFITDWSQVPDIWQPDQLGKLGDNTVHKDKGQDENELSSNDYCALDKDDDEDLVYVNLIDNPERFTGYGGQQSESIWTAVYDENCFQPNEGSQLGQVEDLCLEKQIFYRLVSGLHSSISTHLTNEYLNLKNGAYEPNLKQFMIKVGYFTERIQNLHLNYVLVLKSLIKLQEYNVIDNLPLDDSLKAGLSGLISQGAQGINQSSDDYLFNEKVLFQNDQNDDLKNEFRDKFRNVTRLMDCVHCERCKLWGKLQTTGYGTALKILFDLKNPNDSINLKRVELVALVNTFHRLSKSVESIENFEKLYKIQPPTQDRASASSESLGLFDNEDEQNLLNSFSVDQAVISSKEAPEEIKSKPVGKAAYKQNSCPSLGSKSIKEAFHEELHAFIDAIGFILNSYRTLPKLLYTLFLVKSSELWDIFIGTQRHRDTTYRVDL

Regarding “Komagataella phaffii Erp41, full length, purified (enzyme)”, the K M PDI for Erp41 as substrate of 1 μM Ero1–Pdi1 complex, oxygen consumption assay (titration of Erp41, 10 mM GSH) was 7.07 µM and the kcat of oxygen consumption, 1 μM Ero1–Pdi1 complex plus 10 μM Erp41 worked out at 1.95 s⁻¹.

Source of the values: publication PMC10938136.
